Test results taken from publication PMC4597128.

Target: Helicobacter pylori HP0231 (DsbK) (Helicobacter pylori)
Test: SEC; purified His6-tagged proteins on a calibrated ENrich SEC70 column (Bio-Rad), absorbance at 280 nm; calibrated with Gel Filtration Standard (Bio-Rad)

A stoichiometry N of 2 was found for “Helicobacter pylori HP0231 (DsbK) (enzyme)” in this work.
